Data reported in patent publication EP4714976A1.

What was measured:
[1] = biological target: recombinant mouse FGFR2b (mouse) (UniProt P21803); assay: BLI, antibody on AHC2 sensor
FGFR1 (acro) = FGFR1 (acro) (UniProt P11362); assay: ELISA, antibody 10 µg/mL
[2] = biological target: recombinant mouse FGFR2b (mouse) (UniProt P21803); assay: ELISA, antibody 1ug/mL

FGFR1 (acro), sequence (P11362 22-376): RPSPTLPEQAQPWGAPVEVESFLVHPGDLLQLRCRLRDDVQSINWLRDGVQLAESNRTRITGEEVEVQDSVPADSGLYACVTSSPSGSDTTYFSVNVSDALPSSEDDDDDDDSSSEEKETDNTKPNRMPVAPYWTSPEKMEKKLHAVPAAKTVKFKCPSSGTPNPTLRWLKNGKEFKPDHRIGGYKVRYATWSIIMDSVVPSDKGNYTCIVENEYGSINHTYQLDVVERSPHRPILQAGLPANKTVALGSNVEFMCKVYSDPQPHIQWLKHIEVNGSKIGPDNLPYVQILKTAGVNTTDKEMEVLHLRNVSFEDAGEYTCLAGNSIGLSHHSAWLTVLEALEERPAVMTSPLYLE
recombinant mouse FGFR2b (mouse), sequence (P21803 22-377): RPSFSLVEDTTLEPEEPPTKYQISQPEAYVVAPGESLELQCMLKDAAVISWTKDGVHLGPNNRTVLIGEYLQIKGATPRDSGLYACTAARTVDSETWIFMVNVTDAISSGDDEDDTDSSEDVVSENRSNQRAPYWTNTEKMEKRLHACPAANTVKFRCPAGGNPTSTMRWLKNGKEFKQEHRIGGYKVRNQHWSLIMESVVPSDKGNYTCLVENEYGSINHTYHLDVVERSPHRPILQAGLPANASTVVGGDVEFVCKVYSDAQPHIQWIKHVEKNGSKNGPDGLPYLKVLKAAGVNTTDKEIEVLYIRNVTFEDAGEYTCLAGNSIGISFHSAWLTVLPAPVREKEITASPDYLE

Row | Binder | Kd [1] | koff [1] | kon [1] | OD (450 nm) value (FGFR1 (acro)) | OD (450 nm) value [2]
1 | 3F11 scFv-Fc (Fc fusion) QVQLQQSGAELVKPGASVKMSCKASGYTFAPYNIHWVRQTPGQGLEWIGLIYPDNGDTSYNQKFKAKATLTADKSSSTAYMQLSSLTSEDSAVYYCARGGFDYWGQGTSLTVSSGGGGSGGGGSGGGGSDIVMTQSQKFMSTSVGDRVSVTCKASQNVGTNVAWYQQKPGQSPKALIYSASYRYSGVPDRFTGSGSGTDFTLTISNVQSEDLAEYFCQQHYSTPFTFGSGTKLEIKESKYGPPCPPCPAPEAAGGPSVFLFPPKPKDTLMISRTPEVTCVVVDVSQEDPEVQFNWYVDGVEVHNAKTKPREEQFNSTYRVVSVLTVLHQDWLNGKEYKCKVSNKGLPSSIEKTISKAKGQPREPQVYTLPPSQEEMTKNQVSLTCLVKGFYPSDIAVEWESNGQPENNYKTTPPVLDSDGSFFLYSKLTVDKSRWQEGNVFSCSVMHEALHNHYTQKSLSLSLG | 26 nM | 0.0015 s⁻¹ | 57800 M⁻¹ s⁻¹ | 0.1 | 2.92
2 | 3A3 scFv-Fc (Fc fusion) QVQLQQSGAELVKPGASVKMSCKASGYTFTTYNIHWVRQTPGQGLEWIGLIYPDNGDTSYNQKFKAKATLTADKSSSTAYMHLSSLTSEDSAVYYCARGGFDYWGQGTTLTVSSGGGGSGGGGSGGGGSDIVMTQSHKFMSTSVGDRVSITCKASQDVNTDVSWYQQKPGQSPKLLIYSASYRYTGVPTRFTGSGSGTDFTFTISGVQAEDLADYYCQQHYNTPYTFGGGTRLEIKESKYGPPCPPCPAPEAAGGPSVFLFPPKPKDTLMISRTPEVTCVVVDVSQEDPEVQFNWYVDGVEVHNAKTKPREEQFNSTYRVVSVLTVLHQDWLNGKEYKCKVSNKGLPSSIEKTISKAKGQPREPQVYTLPPSQEEMTKNQVSLTCLVKGFYPSDIAVEWESNGQPENNYKTTPPVLDSDGSFFLYSKLTVDKSRWQEGNVFSCSVMHEALHNHYTQKSLSLSLG | 39.6 nM | 0.00122 s⁻¹ | 30800 M⁻¹ s⁻¹ | 0.097 | 2.63
3 | 2B2 scFv-Fc (Fc fusion) QLQLQQSGAELVKPGASVKMSCKASGYTFASYNLHWVKQTPGQGLEWIGLIYPENGDTSYNQKFKDKATLTADKSSTTAYIQLSSLASEDSAVYFCARGGFDYWGQGTTLTVSSGGGGSGGGGSGGGGSDIVMTQSQKFMSTSVGDRVSVTCKASQNVGTNVAWYQQKPGQSPKALIYSASYRYSGVPDRFTGSGSGTDYTLTISSVQAEDLALYYCQQHYSTPYTFGGGTKLELKESKYGPPCPPCPAPEAAGGPSVFLFPPKPKDTLMISRTPEVTCVVVDVSQEDPEVQFNWYVDGVEVHNAKTKPREEQFNSTYRVVSVLTVLHQDWLNGKEYKCKVSNKGLPSSIEKTISKAKGQPREPQVYTLPPSQEEMTKNQVSLTCLVKGFYPSDIAVEWESNGQPENNYKTTPPVLDSDGSFFLYSKLTVDKSRWQEGNVFSCSVMHEALHNHYTQKSLSLSLG | 53.5 nM | 0.00235 s⁻¹ | 43900 M⁻¹ s⁻¹ | 0.109 | 3.09
4 | 1B8 scFv-Fc (Fc fusion) QIQLQQSGAELVKPGASVKMSCKASGYTFASYNLHWVKQTPGQGLEWIGLIYPENGDTSYNQKFKGKATLTADTSSTTAYIQLSSLTSEDSAVYFCARGGFDYWGQGTSLTVSSGGGGSGGGGSGGGGSDIKMTQSPASLSASVGETVTITCGASENIYGALNWYQRKQGKSPQLLIYGATNLADGMSSRFSGSGSGRQYSLKISSLHPDDVATYYCQNVLSTPYTFGGGTKLEIKESKYGPPCPPCPAPEAAGGPSVFLFPPKPKDTLMISRTPEVTCVVVDVSQEDPEVQFNWYVDGVEVHNAKTKPREEQFNSTYRVVSVLTVLHQDWLNGKEYKCKVSNKGLPSSIEKTISKAKGQPREPQVYTLPPSQEEMTKNQVSLTCLVKGFYPSDIAVEWESNGQPENNYKTTPPVLDSDGSFFLYSKLTVDKSRWQEGNVFSCSVMHEALHNHYTQKSLSLSLG | 74.9 nM | 0.0048 s⁻¹ | 64000 M⁻¹ s⁻¹ | 0.092 | 2.01
5 | 3E1 scFv-Fc (Fc fusion) QVQLQQPGAEVVKPGASVKMSCKASGYTFTDYYIHWVKQTPGQGLEWIGAIYPDNGDTSYNQKFKVKATLTADKSSSTAYMQLSSLTSEDSAVYYCARAFTYWGQGTLVTVSAGGGGSGGGGSGGGGSDILITQSPASLSASVGETVTITCGASENIYGALNWYQRKQGKSPQLLIYGATNLADGMSSRFSGSGSGRQYSLKISSLHPDDVATYYCQNVLSTPYTFGGGTKLEIKESKYGPPCPPCPAPEAAGGPSVFLFPPKPKDTLMISRTPEVTCVVVDVSQEDPEVQFNWYVDGVEVHNAKTKPREEQFNSTYRVVSVLTVLHQDWLNGKEYKCKVSNKGLPSSIEKTISKAKGQPREPQVYTLPPSQEEMTKNQVSLTCLVKGFYPSDIAVEWESNGQPENNYKTTPPVLDSDGSFFLYSKLTVDKSRWQEGNVFSCSVMHEALHNHYTQKSLSLSLG | 21.8 nM | 0.00126 s⁻¹ | 57800 M⁻¹ s⁻¹ | 0.08 | 2.92
6 | 3H9 scFv-Fc (Fc fusion) EIQLQQSGAELVKPGASVKMSCKASGYTFSFYNMHWVKRTPGQGLEWIGLIYPDNGDTSYNQKFKGKATLTADTSSSTAYMQLSSLTSEDSAVYYCARGGLDYWGQGTTLTVSSGGGGSGGGGSGGGGSDIVLTQSPASLSVSVGETVTITCRASENIYSNLAWYQQKQGKSPQLLVYAATNLADGVPSRFSGSGSGTQYSLKINSLQSEDFGSYYCQHFWGTPYTFGGGTKLELKESKYGPPCPPCPAPEAAGGPSVFLFPPKPKDTLMISRTPEVTCVVVDVSQEDPEVQFNWYVDGVEVHNAKTKPREEQFNSTYRVVSVLTVLHQDWLNGKEYKCKVSNKGLPSSIEKTISKAKGQPREPQVYTLPPSQEEMTKNQVSLTCLVKGFYPSDIAVEWESNGQPENNYKTTPPVLDSDGSFFLYSKLTVDKSRWQEGNVFSCSVMHEALHNHYTQKSLSLSLG | 23.8 nM | 0.00129 s⁻¹ | 54200 M⁻¹ s⁻¹ | 0.646 | 2.99

Further binders by falling Kd [1], results first:

Row | Kd [1] | koff [1] | kon [1] | OD (450 nm) value (FGFR1 (acro)) | OD (450 nm) value [2] | Binder
7 | 75.6 nM | 0.00216 s⁻¹ | 28600 M⁻¹ s⁻¹ | 0.626 | 2.94 | 1C10 scFv-Fc (Fc fusion) QVQLQQSGAELVKPGASVKMSCKASGYTFRYYNMHWVKRTPGQGLEWIGLIYPDNGDTSYNQKFKGKATLTADTSSSTAYMQLSSLTSEDSAVYYCARGGLDYWGQGTSLTVSSGGGGSGGGGSGGGGSDIVMTQSPASLSASVGETVTITCRASGNIHNYLAWYQQKQGKSPQLLVYNAKTLADGVPSRFSGSGSGTQYSLKINSLQPEDFGSYYCQHFWSTPYTFGGGTKLEMKESKYGPPCPPCPAPEAAGGPSVFLFPPKPKDTLMISRTPEVTCVVVDVSQEDPEVQFNWYVDGVEVHNAKTKPREEQFNSTYRVVSVLTVLHQDWLNGKEYKCKVSNKGLPSSIEKTISKAKGQPREPQVYTLPPSQEEMTKNQVSLTCLVKGFYPSDIAVEWESNGQPENNYKTTPPVLDSDGSFFLYSKLTVDKSRWQEGNVFSCSVMHEALHNHYTQKSLSLSLG
8 | 36.5 nM | 0.00152 s⁻¹ | 41800 M⁻¹ s⁻¹ | 0.122 | 2.96 | 3E2 scFv-Fc (Fc fusion) EIQLQQSGAELVKPGASVKMSCKASGYTFSFYNMHWVKRTPGQGLEWIGLIYPDNGDTSYNQKFKGKATLTADTSSSTAYMQLSSLTSEDSAVYYCARGGLDYWGQGTSLTVSSGGGGSGGGGSGGGGSNIVMTQSQKFMSTSVGDRVSVTCKASQNVGTNVAWYQQKPGQSPKALIYSASYRYTGVPDRFTGSGSGTDFTFTISSVQAEDLAVYYCQQHYSTPYTFGGGTKLEIKESKYGPPCPPCPAPEAAGGPSVFLFPPKPKDTLMISRTPEVTCVVVDVSQEDPEVQFNWYVDGVEVHNAKTKPREEQFNSTYRVVSVLTVLHQDWLNGKEYKCKVSNKGLPSSIEKTISKAKGQPREPQVYTLPPSQEEMTKNQVSLTCLVKGFYPSDIAVEWESNGQPENNYKTTPPVLDSDGSFFLYSKLTVDKSRWQEGNVFSCSVMHEALHNHYTQKSLSLSLG
9 | 33.9 nM | 0.00172 s⁻¹ | 50700 M⁻¹ s⁻¹ | 0.083 | 2.97 | 3B7 scFv-Fc (Fc fusion) EVQLQQSGAELVKPGASVKMSCKASGYTFRYYNMHWVKRTPGQGLEWIGLIYPDNGDTSYNQKFKGKATLTADTSSSTAYMQLSSLTSEDSAVYYCARGGFDYWGQGTTLTVSSGGGGSGGGGSGGGGSDIQMTQSPASLSASVGETVTITCGASENIYGALNWYQRKQGKSPQLLIYGATNLADGMSSRFSGSGSGRQYSLKISSLHPDDVATYYCQNVLSTPYTFGGGTKLELKESKYGPPCPPCPAPEAAGGPSVFLFPPKPKDTLMISRTPEVTCVVVDVSQEDPEVQFNWYVDGVEVHNAKTKPREEQFNSTYRVVSVLTVLHQDWLNGKEYKCKVSNKGLPSSIEKTISKAKGQPREPQVYTLPPSQEEMTKNQVSLTCLVKGFYPSDIAVEWESNGQPENNYKTTPPVLDSDGSFFLYSKLTVDKSRWQEGNVFSCSVMHEALHNHYTQKSLSLSLG
10 | 27.6 nM | 0.00117 s⁻¹ | 42500 M⁻¹ s⁻¹ | 0.074 | 3.04 | 1D7 scFv-Fc (Fc fusion) QIQLQQSGAELVKPGASVKMSCKASGYTFRYYNMHWVKRTPGQGLEWIGLIYPDNGDTSYNQKFKGKATLTADTSSSTAYMQLSSLTSEDSAVYYCARGGLDYWGQGTSLTVSSGGGGSGGGGSGGGGSDIQMTQSPSSMSASLGDRITITCQATQDIVKNLNWYQQKPGKPPSFLIYYATELAEGVPSRFSGSGSGSDYSLTISNLESEDFADYYCLQFYEFPLTFGAGTKLELKESKYGPPCPPCPAPEAAGGPSVFLFPPKPKDTLMISRTPEVTCVVVDVSQEDPEVQFNWYVDGVEVHNAKTKPREEQFNSTYRVVSVLTVLHQDWLNGKEYKCKVSNKGLPSSIEKTISKAKGQPREPQVYTLPPSQEEMTKNQVSLTCLVKGFYPSDIAVEWESNGQPENNYKTTPPVLDSDGSFFLYSKLTVDKSRWQEGNVFSCSVMHEALHNHYTQKSLSLSLG
11 | 27.3 nM | 0.0015 s⁻¹ | 54900 M⁻¹ s⁻¹ | 0.458 | 2.88 | 3B4 scFv-Fc (Fc fusion) EVQLQQSGADLVKPGASVKMSCKASGYTFSYYNMHWVRRTPGQGLEWIGLIYPDNGDTSYNQKFKGKATLTADTSSSTAYMQLSSLTSEDSAVYYCARGGLDYWGQGTTLTVSSGGGGSGGGGSGGGGSDIQMIQSPASMSASVGETVTITCGASENIYGALNWYQRKQGKSPQLLIYGATNLADGMSSRFSGSGSGRQYSLKISSLHPDDVATYYCQNVLSTPYTFGGGTKLEMKESKYGPPCPPCPAPEAAGGPSVFLFPPKPKDTLMISRTPEVTCVVVDVSQEDPEVQFNWYVDGVEVHNAKTKPREEQFNSTYRVVSVLTVLHQDWLNGKEYKCKVSNKGLPSSIEKTISKAKGQPREPQVYTLPPSQEEMTKNQVSLTCLVKGFYPSDIAVEWESNGQPENNYKTTPPVLDSDGSFFLYSKLTVDKSRWQEGNVFSCSVMHEALHNHYTQKSLSLSLG
